Measured values published in the DeepSol protein solubility set.

Assay: soluble on expression in E. coli; label from the status in PepcDB or PDB records

Which “soluble on expression in E. coli” value does the source give for “MSLTEAGDSEGEQSYFVSTPDEYPGGHDREDDGSVYGQIHIEEESTIRYSWQDEIAQGTWRRKMRGDVGGEKPVKVLEVPALSLGGAIGSAHLKEEASGELRAEPTVIEKEIKIPHEFHTSIKGVFSSEPRHQLVEVIGQLEETLPERMKEELSALTRQSQGESGSVSVDVKKVQSAAGGSVTLMAEVNLSQTVDADQLDLEQLSRDEAGEIERAVESVVRESLAKRSSPVPRSEGHHHHHH” here?
The value was “soluble”.

Which “soluble on expression in E. coli” value does the source give for “MTVDSSMSSGYCSLDEELEDCFFTAKTTFFRNAQSKHLSKNVCKPVEETQRPPTLQEIKQKIDSYNTREKNCLGMKLSEDGTYTGFIKVHLKLRRPVTVPAGIRPQSIYDAIKEVNLAATTDKRTSFYLPLDAIKQLHISSTTTVSEVIQGLLKKFMVVDNPQKFALFKRIHKDGQVLFQKLSIADRPLYLRLLAGPDTEVLSFVLKENETGEVEWDAFSIPELQNFLTILEKEEQDKIQQVQKKYDKFRQKLEEALRESQGKPG” here?
Its value is “not soluble”.

Which “soluble on expression in E. coli” value does the source give for “MAHHHHHHMTYYTVEEITDRRINENDGAIEYAVKWEGVAGELTWEKRHQLTENCAETVQAVDQRCMDATDEELERWRDGKWKRGAKRAHDAPPLVGTTTERRKRSRSVSPAAGEDLEQVEVLNGLLLRPPCGAQNAEEEGTILMLGEVVLAEEASAILNGTGSYRKKCRTATVSTAVAFHTAPALDIEKRWRGIHGQSLLHSIEVAQSITPFHPHFRLHGCDPATRCAMALEVERSSHLRIISIAPPLMTHSGAVFGLPVALDPLVGEKDVEQLRQSVQLESPLFGSAAQELVKPHVEQMVVRYIIPEVTPATDDDTATPTTELFPVHGRIASMPLSVFRVVFPQLLIDYLLTNSVVLR” here?
The value was “not soluble”.

With “MKPLSWSEAFGKGAGRIQASTIRELLKLTQRPGILSFAGGLPAPELFPKEEAAEAAARILREKGEVALQYSPTEGYAPLRAFVAEWIGVRPEEVLITTGSQQALDLVGKVFLDEGSPVLLEAPSYMGAIQAFRLQGPRFLTVPAGEEGPDLDALEEVLKRERPRFLYLIPSFQNPTGGLTPLPARKRLLQMVMERGLVVVEDDAYRELYFGEARLPSLFELAREAGYPGVIYLGSFSKVLSPGLRVAFAVAHPEALQKLVQAKQGADLHTPMLNQMLVHELLKEGFSERLERVRRVYREKAQAMLHALDREVPKEVRYTRPKGGMFVWMELPKGLSAEGLFRRALEENVAFVPGGPFFANGGGENTLRLSYATLDREGIAEGVRRLGRALKGLLALV” as the sequence, how does the “soluble on expression in E. coli” value read?
The value was “soluble”.

With “MSLESVGDVLKRQPSRFHYQDLVQKIMKDPDVAAFVQQESLNQDELNRSISKFNQYITERDKFLRGDTDYIAKGYKPILVMNHGYADVSYEETPELIAAEKEAAIKKRLNLINFPSSLKNVSFLDVYRDDVQRLTVLKRMIEFVNDYPNNLKGLYLYGDFGVGKSFMVAALAHDLSEKRGVSSTLLHYPSFVIDVKNAIGDGNVKTLVDEIKLSEVLILDDIGAEQSTAWVRDEILQVILQYRMQENLPTFFTSNFNFEDLEKHFAKGKNGNDETWEARRVMERIRYLAEETRLEGVNRREGHHHHHH” as the sequence, how does the “soluble on expression in E. coli” value read?
Its value is “soluble”.

For “MGSDKIHHHHHHMEKVKAILFDKDGTLMDFHSIWIKVAEELVAEYIKLYQLPQSMQPTLLKEIGVDGVFVHPRSAIAAGTSLDVAKGLCKYITSSKEEEMHEWVSEKLFALMYEHRSYMKMTADLPRILQSLKDRGFILGVVTADDFAPTELFLKQYQLETFFDYVVASDTFAAQKPDKRIIESFCERFHLKACEVAVVGDTPTDLYLAKNGDCYAIGVLSGTGNRQTLEPLADLVVQSVGDFISHSGEFVWEKGKSNV”, which “soluble on expression in E. coli” value is on record?
Its value is “not soluble”.

For “MGSDKIHHHHHHMSKAKELTPEQFRKMQLTELDMLVEFDKVCRKHNINYVLFGGSLLGAVRHKGYIPWDDDADIGMLREDYDTFKKYASEMNSEICYFQDHDTDPEYRWGYGKLRRTNTIYVRVGQEHLKNKTGIFVDVFPMDDVPLSTLGQIVQDRKVYCLRKILWSEVARVQSTGFMKLWYSVLAKIPVEWVFSRLNKYAVKSKNITPNRVRCLSFPATGTLYKKNSLKTRYSMPKSWFTNRAEYLFEGRLLYSSKEYDEVLKYIYGKYMELPPKDKREQHSPFSKIKFQDEEMIV”, which “soluble on expression in E. coli” value is on record?
Its value is “not soluble”.

With “QITLKESGPGIVQPSQPFRLTCTFSGFSLSTSGIGVTWIRQPSGKGLEWLATIWWDDDNRYNPSLKSRLTVSKDTSNNQAFLNMMTVETADTAIYYCAQSAITSVTDSAMDHWGQGTSVTVSSAKTTPPSVYPLAPGSAAQTNSMVTLGCLVKGYFPEPVTVTWNSGSLSSGVHTFPAVLQSDLYTLSSSVTVPSSTWPSETVTCNVAHPASSTKVDKKIVPADC” as the sequence, how does the “soluble on expression in E. coli” value read?
The value was “soluble”.

For “MNSHDGSNFSNKFSAHKDVVEDLLRKDTVGLVTFQDFRARREYLERCAVAEAACQNASRRAEELETKKKRVKRANLSRLSFGDSLEDQEENSVEFAKITRFASSKKANGVGFNTSGQDIVKEPDVFSPKEEGFFGKQNRKIGMDPGVDTSFLPDRDREQEERLERERLKQQWLSEQERVKNEEIDIIYSIWDGRGQRKLLSCKKGTTIAKFLSIVQQKVSTLKHCKVEDLMFIKEDMIIPHHLSFYDLISMKARGKNGSLFCFDVHEDIRIRNDASVEKDDSHAAKVVERRWYERNKHIYPASMWEVFDVSKNYGRVQKDFFGN”, which “soluble on expression in E. coli” value is on record?
The value was “soluble”.

For “IQVFVKNPDGGSYAYAINPNSFILGLKQQIEDQQGLPKKQQQLEFQGQVLQDWLGLGIYGIQDSDTLILSKKKG”, which “soluble on expression in E. coli” value is on record?
The value was “soluble”.

For “MSLSVSFIFLLVASIGAVVADSENVLVLTESNFEETINGNEFVLVKFYAPWCVHCKSLAPKYDEAADLLKEEGSDIKLAKVDATENQALASKFEVRGYPTILYFKSGKPTKYTGGRATAQIVDWVKKKSGPTVTTVESVEQLEELKGKTRVVVLGYFKDAKSDAATIYNEVADSVDDAFFAVAGSAEVAAAASLNEDGVALIRTDGDDSETSTIAEAEITNTIALKQWLHAYKLSAVTEFTHESAQEIVGGDLKKFHFLIIRKSDSSFDETIAKFTEVAKKFRAKIVFVLLDVDVEENARILEFLGVDAKNTPANRIVSLADQVEKFKPQEGEDFEAFTNSYLEGKSAQDLKAQDLPEDWNALPVKVLVASNFNEIALDETKTVFVKFYAPWCGHCKQLVPVWDELAEKYESNPNVVIAKLDATLNELADVKVNSFPTLKLWPAGSSTPVDYDGDRNLEKFEEFVNKYAGSASESETASQDHEEL”, which “soluble on expression in E. coli” value is on record?
Its value is “not soluble”.

With “MGSDKIHHHHHHMSDSEKEILKRIKDNPFISQRELAEAIGLSRPSVANIISGLIQKEYVMGKAYVLNEDYPIVCIGAANVDRKFYVHKDLVAETSNPVTSTRSIGGVARNIAENLGRLGETVAFLSASGQDSEWEMIKRLSTPFMNLDHVQQFENASTGSYTALISKEGDMTYGLADMEVFDYITPEFLIKRSHLLKKAKCIIVDLNLGKEALNFLCAYTTKHQIKLVITTVSSPKMKNMPDSLHAIDWIITNKDETETYLNLKIESTDDLKIAAKRWNDLGVKNVIVTNGVKELIYRSGEEEIIKSVMPSNSVKDVTGAGDSFCAAVVYSWLNGMSTEDILIAGMVNAKKTIETKYTVRQNLDQQQLYHDMEDYKNGKFTKVY” as the sequence, how does the “soluble on expression in E. coli” value read?
Its value is “not soluble”.

With “MAANKPKGQNSLALHKVIMVGSGGVGKSALTLQFMYDEFVEDYEPTKADSYRKKVVLDGEEVQIDILDTAGQEDYAAIRDNYFRSGEGFLCVFSITEMESFAATADFREQILRVKEDENVPFLLVGNKSDLEDKRQVSVEEAKNRAEQWNVNYVETSAKTRANVDKVFFDLMREIRARKMEDSKEKNGKKKRKSLAKRIRERCCIL” as the sequence, how does the “soluble on expression in E. coli” value read?
The value was “soluble”.

Which “soluble on expression in E. coli” value does the source give for “MRYIAGIDIGNSSTEVALATLDEAGALTITHSALAETTGIKGTLRNVFGIQEALALVARGAGIAVSDISLIRINEATPVIGDVAMETITETIITESTMIGHNPKTPGGAGLGTGITITPQELLTRPADAPYILVVSSAFDFADIASVINASLRAGYQITGVILQRDDGVLVSNRLEKPLPIVDEVLYIDRIPLGMLAAIEVAVPGKVIETLSNPYGIATVFNLSPEETKNIVPMARALIGNRSAVVVKTPSGDVKARAIPAGNLELLAQGRSVRVDVAAGAEAIMKAVDGCGRLDNVTGESGTNIGGMLEHVRQTMAELTNKPSSEIFIQDLLAVDTSVPVSVTGGLAGEFSLEQAVGIASMVKSDRLQMAMIAREIEQKLNIDVQIGGAEAEAAILGALTTPGTTRPLAILDLGAGSTDASIINPKGDIIATHLAGAGDMVTMIIARELGLEDRYLAEEIKKYPLAKVESLFHLRHEDGSVQFFSTPLPPAVFARVCVVKADELVPLPGDLALEKVRAIRRSAKERVFVTNALRALRQVSPTGNIRDIPFVVLVGGSSLDFEVPQLVTDALAHYRLVAGRGNIRGSEGPRNAVATGLILSWHKEFAHER” here?
The value was “soluble”.
